According to PMC11310688:

Key:
[1] = molecular target: Halo-HA-Nesp2-SR48∼56 (Nesprin-2 spectrin repeats 48-56) (mouse) (UniProt Q6ZWQ0)
[2] = molecular target: dynactin subunit p150^Glued, Q14203-1; assay: co-immunoprecipitation (IP: anti-Halo) with immunoblot quantification; conditions: HEK293 cell lysate, bars mean ± SEM, parent: est. 1.0, read off a plot
[3] = molecular target: kinesin heavy chain (KHC) (UniProt P33176); assay: as above; conditions: HEK293 cell lysate; n = 5 independent experiments; bars mean ± SEM; parent: est. 1.0; read off a plot

Row | Substance | velocity of rapalog-induced peroxisome transport by Nesp2-SR48ΔKASH-FRB (5655-6767aa) along microtubules in MRC5 cells, both directions [1] [µm/s] | other results
1 | kinesin heavy chain (KHC) (from UniProt P33176 1-963) (natural protein) | 1 | 
2 | Halo-HA-Nesp2-SR48-KASH (Nesprin-2 SR48-56 and the KASH domain) (from UniProt Q6ZWQ0-1) LEWD>LEAA |  | ratio to parent ([2]; n = 5 independent experiments): 0.98
3 | Bicaudal D2 (BicD2) (from UniProt Q8TD16 1-824) (natural protein) | 1 | 
4 | Halo-HA-Nesp2-SR48-KASH (Nesprin-2 SR48-56 and the KASH domain) (from UniProt Q6ZWQ0-1) ALALE>AAAAA; SLFTE>AAAAA; RLARE>AAAAA; AAWLG>VVWLG |  | ratio to parent [3]: 0.22; ratio to parent ([2]; n = 5 independent experiments): 0.19
5 | dynactin subunit p150^Glued (from UniProt Q14203-1 1-1278) (natural protein) | 1 | 
6 | dynein heavy chain (DHC) (from UniProt Q14204 1-4646) (natural protein) | 1 | 
7 | Halo-HA-Nesp2-SR48-KASH (Nesprin-2 SR48-56 and the KASH domain) (from UniProt Q6ZWQ0-1) ALALE>AAAAA; SLFTE>AAAAA; RLARE>AAAAA; LEWD>LEAA; AAWLG>VVWLG |  | ratio to parent ([2]; 3 data points drawn for this bar): 0.08
